# The DeepSol protein solubility set
# Test: soluble on expression in E. coli; label from the status in PepcDB or PDB records
row,Sequence,soluble on expression in E. coli
1,MTSKADYLKKYLSPASGDIEKKKKKKNKDKNKPSGLRLIEEDAFLSVDAAKTRDIGSDEEREEIEVLKQSVKKAKVVHGFKQTFAEVDAPKVIKPEPLSPDNSPPRGKRQRHDSDNSPPRPSRKRNDSDNSPPRPSRNRHDSDKDNSPPRRRRHDSDNSPPRPSRKIREESPSARNRRSPPRTRRDRHDSDNSPPRNRSRRDSDNSPPRRRPSSPARRRKDDDLSPPRKSRKIEEPKKIKKEEPDSDTETSGRTLEGKRSGLQSARDLKEESDKLRAKNSKMFEEMDTSVSGRFADTVYRQKQTKKKGKDSEEDQAKKERETKKTEELKEKYKSWNKGVAQIEDRRAQLEEMARVAAEPMARARDDDAMNAHLKEVLHAADPMANMIQKKRRDTAIDRGELVYPSYHGHFVPNRFGIAPGYRWDGVDRSNGFEGKLAKTENTKTANQSEYYKSIAEYE,not soluble
2,MGHHHHHHSHMGTVKQLLLFSETEGNPCFLDICGNFLVVGTDLAHFKSFDLSRREAKAHCSCRSLAELVPGVGGIASLRCSSSGSTISILPSKADNSPDSKICFYDVEMDTVTVFDFKTGQIDRRETLSFNEQETNKSHLFVDEGLKNYVPVNHFWDQSEPRLFVCEAVQETPRSQP,soluble
3,MKLVDALGKPCPIPVIETKKALAELGLAGGTIEVLVDNEVAIENLKKLATKKQATLTAKQIEATVFSVKITVPEEATQQTSQSATDLVITIGSDQLGTGDEQLGRLLMKSYLQSLSEAETVPTQLLFFNRGAFLTNQAANTLADLQQLAEKGTTIQTCGACLDFYHLTDTLAIGSITNMYEIVETMNQAAKVITLLEHHHHHH,soluble
4,MRLLTIGSGLRGAKVAEILHKKGVKVNRVPLFKCFAVLNNEEHLRSISIGDDRKYYVHGLKGDVSGFVNQITSLYEIFEGSLVLTSLEDDFGYITSLELCQRLRKVTEDAVISLAIVPQLDTSSIGEIKKRIRSLRDVSDILILFEGEVGVERKILEVMNLVALAGEIDLKKRVAGEVVVDTSDVFNALKSDGFAIAGLAERKIPFNFKNLIFRRNSELKAVRTRRMIELTEEALQNVSINGDVENAKSALLLFAGKPDELTMEGLFSSIAMIENINRDIVVRYGDYPIPGSRKVSAVLIFSGIRKFRFA,soluble
5,MSLFQITKSKLRFPLSTFTKRYSSFQAAKSVIDKAAIDGELRVFIVSGEVSGDNIGSRLMSSLKKLSPLPIRFNGVGGSLMCKKGLNSLFPMEDLAVMGVWELLPHLYKFRVKLKETIDAAVKFKPHVVVTVDSKGFSFRLLKELRGKQHKTCFIKLVRENHEGHHHHHH,not soluble
6,MKKMLVLLFVCLLVLAGCSSKSEPQGGGAAKKAEPKVMKMAVATSKDRSLTKGLYKFAEIVEKETNGSIKVEVYPDGQLGGDVAVFEALKMGTIQGSTMSTGPIASFAPRIGVLDLPFLFKDRETAYKVLDGKIGQDLLNDLPSVGVIGLNYWENGFRHLTNNKREVKSVDDIKGLKIRTLENDLHIDLWKELGATPVPMVFTELFTALEQHVVDGQENPVGNVAINKFYEVQKYLTKTGHVYNASPLLISKKFWDTLTDKEKDIIKKAAEEARDYQRKLNQEEDEKMFDYLKQQGMVITELSPEEKQKFVEKVQPIYQKYAPKFGQDLVNELINAGK,not soluble
7,MKENPSFLKEQIITYLGNKRALLSFLNNGFKVAKKELGKDKFSFCDIFSGSGVVSRFAKAHSNYILANDLEDYSKLINECYLANKDKDLLQNIKKYYKNLIQNLDFQKGFISELYAPKDDDDIKKNERVFYTFKNALYLDTIRQKIENEIPKELRHFFIAPLIYEASVHSNTSGVFKGFYKGKDGIGKFGGEGQNALKRIKGEIELKMPIFSNFSCEFEVMQKDANMLAKELDFFDVVYLDPPYNQHPYSSNYFMLNLIANYKKPEEISKISGIPKDWNRSTFNKSKFAQDALFELINDLKARVILLSYNCEGFVKKEIFLKRLSTLGKCRILEQKYNTFRASRNLKNRNIHLHEQLYILVKN,not soluble
8,MVSPLKTRCCSPSSQQQASEAREIEQPSTVWELDFYSRPVYGKDNKRIWELIVVDESFLLCHVESVPNDMINSAELRKRVERLLEQVTVKPKVVKFSRMPMFNMISLALKDLGFEVKPSRRTYRLYHVLRDREANIYSKMPGYRSENTLSTSYLYSTERLPDALRGEKFAFCTADYSFLYELQSSDTIPYCDIFNTGDSILLEKELPGIIVYSERADSLASWTAGAEVSFIKFREEELELVLECGINSHYRLAKIAEDHRLVEEAKTFEQMKWHMKGFHFYAIQSLKETSGTSHIKGLWLLNDFMEQ,not soluble
